The results in this text go back to paper PMC12416549 (2024).

Sequences and labels used below:
T1: TNFR1 (Homo sapiens, UniProt P19438)
T1 chain: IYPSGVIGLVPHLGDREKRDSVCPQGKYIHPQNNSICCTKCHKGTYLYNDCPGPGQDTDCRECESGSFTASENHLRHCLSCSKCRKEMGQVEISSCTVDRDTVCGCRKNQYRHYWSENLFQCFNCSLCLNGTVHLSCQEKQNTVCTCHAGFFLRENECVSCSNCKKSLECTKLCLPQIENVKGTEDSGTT

B1: R13S (designed binder)
chain: MTLQELLREEALSRAEAEAFRYALELLAEKFPEQKEYLLDLAEEIESQIRSLSGVDVEDVRKFLDKEWAWVKELLAEHPAELAEVEAARAARLAELRAEVEAKVAA
B2: P32N (designed binder)
chain: MTLQELLREEALRRAEAEAFRYALELLAEKFNEQKEYLLDLAEEIESQIRSLSGVDVEDVRKFLDKEWAWVKELLAEHPAELAEVEAARAARLAELRAEVEAKVAA
B3: R21C (designed binder)
chain: MTLQELLREEALRRAEAEAFCYALELLAEKFPEQKEYLLDLAEEIESQIRSLSGVDVEDVRKFLDKEWAWVKELLAEHPAELAEVEAARAARLAELRAEVEAKVAA
B4: V85Y (designed binder)
chain: MTLQELLREEALRRAEAEAFRYALELLAEKFPEQKEYLLDLAEEIESQIRSLSGVDVEDVRKFLDKEWAWVKELLAEHPAELAEYEAARAARLAELRAEVEAKVAA
B5: R13K (designed binder)
chain: MTLQELLREEALKRAEAEAFRYALELLAEKFPEQKEYLLDLAEEIESQIRSLSGVDVEDVRKFLDKEWAWVKELLAEHPAELAEVEAARAARLAELRAEVEAKVAA
B6: A28E (designed binder)
chain: MTLQELLREEALRRAEAEAFRYALELLEEKFPEQKEYLLDLAEEIESQIRSLSGVDVEDVRKFLDKEWAWVKELLAEHPAELAEVEAARAARLAELRAEVEAKVAA
B7: W68S (designed binder)
chain: MTLQELLREEALRRAEAEAFRYALELLAEKFPEQKEYLLDLAEEIESQIRSLSGVDVEDVRKFLDKESAWVKELLAEHPAELAEVEAARAARLAELRAEVEAKVAA
B8: F20Y (designed binder)
chain: MTLQELLREEALRRAEAEAYRYALELLAEKFPEQKEYLLDLAEEIESQIRSLSGVDVEDVRKFLDKEWAWVKELLAEHPAELAEVEAARAARLAELRAEVEAKVAA
B9: K72W (designed binder)
chain: MTLQELLREEALRRAEAEAFRYALELLAEKFPEQKEYLLDLAEEIESQIRSLSGVDVEDVRKFLDKEWAWVWELLAEHPAELAEVEAARAARLAELRAEVEAKVAA
B10: L64T (designed binder)
chain: MTLQELLREEALRRAEAEAFRYALELLAEKFPEQKEYLLDLAEEIESQIRSLSGVDVEDVRKFTDKEWAWVKELLAEHPAELAEVEAARAARLAELRAEVEAKVAA
B11: V85Q (designed binder)
chain: MTLQELLREEALRRAEAEAFRYALELLAEKFPEQKEYLLDLAEEIESQIRSLSGVDVEDVRKFLDKEWAWVKELLAEHPAELAEQEAARAARLAELRAEVEAKVAA
B12: L96S (designed binder)
chain: MTLQELLREEALRRAEAEAFRYALELLAEKFPEQKEYLLDLAEEIESQIRSLSGVDVEDVRKFLDKEWAWVKELLAEHPAELAEVEAARAARLAESRAEVEAKVAA
B13: L74M (designed binder)
chain: MTLQELLREEALRRAEAEAFRYALELLAEKFPEQKEYLLDLAEEIESQIRSLSGVDVEDVRKFLDKEWAWVKEMLAEHPAELAEVEAARAARLAELRAEVEAKVAA
B14: V71T (designed binder)
chain: MTLQELLREEALRRAEAEAFRYALELLAEKFPEQKEYLLDLAEEIESQIRSLSGVDVEDVRKFLDKEWAWTKELLAEHPAELAEVEAARAARLAELRAEVEAKVAA
B15: E5W (designed binder)
chain: MTLQWLLREEALRRAEAEAFRYALELLAEKFPEQKEYLLDLAEEIESQIRSLSGVDVEDVRKFLDKEWAWVKELLAEHPAELAEVEAARAARLAELRAEVEAKVAA
B16: Q34L (designed binder)
chain: MTLQELLREEALRRAEAEAFRYALELLAEKFPELKEYLLDLAEEIESQIRSLSGVDVEDVRKFLDKEWAWVKELLAEHPAELAEVEAARAARLAELRAEVEAKVAA
B17: E99W (designed binder)
chain: MTLQELLREEALRRAEAEAFRYALELLAEKFPEQKEYLLDLAEEIESQIRSLSGVDVEDVRKFLDKEWAWVKELLAEHPAELAEVEAARAARLAELRAWVEAKVAA
B18: A98L (designed binder)
chain: MTLQELLREEALRRAEAEAFRYALELLAEKFPEQKEYLLDLAEEIESQIRSLSGVDVEDVRKFLDKEWAWVKELLAEHPAELAEVEAARAARLAELRLEVEAKVAA
B19: K62P (designed binder)
chain: MTLQELLREEALRRAEAEAFRYALELLAEKFPEQKEYLLDLAEEIESQIRSLSGVDVEDVRPFLDKEWAWVKELLAEHPAELAEVEAARAARLAELRAEVEAKVAA
B20: L38C (designed binder)
chain: MTLQELLREEALRRAEAEAFRYALELLAEKFPEQKEYCLDLAEEIESQIRSLSGVDVEDVRKFLDKEWAWVKELLAEHPAELAEVEAARAARLAELRAEVEAKVAA
B21: E44V (designed binder)
chain: MTLQELLREEALRRAEAEAFRYALELLAEKFPEQKEYLLDLAEVIESQIRSLSGVDVEDVRKFLDKEWAWVKELLAEHPAELAEVEAARAARLAELRAEVEAKVAA
B22: E84P (designed binder)
chain: MTLQELLREEALRRAEAEAFRYALELLAEKFPEQKEYLLDLAEEIESQIRSLSGVDVEDVRKFLDKEWAWVKELLAEHPAELAPVEAARAARLAELRAEVEAKVAA
B23: E46S (designed binder)
chain: MTLQELLREEALRRAEAEAFRYALELLAEKFPEQKEYLLDLAEEISSQIRSLSGVDVEDVRKFLDKEWAWVKELLAEHPAELAEVEAARAARLAELRAEVEAKVAA
B24: E9R (designed binder)
chain: MTLQELLRREALRRAEAEAFRYALELLAEKFPEQKEYLLDLAEEIESQIRSLSGVDVEDVRKFLDKEWAWVKELLAEHPAELAEVEAARAARLAELRAEVEAKVAA
B25: L64W (designed binder)
chain: MTLQELLREEALRRAEAEAFRYALELLAEKFPEQKEYLLDLAEEIESQIRSLSGVDVEDVRKFWDKEWAWVKELLAEHPAELAEVEAARAARLAELRAEVEAKVAA
B26: E25Y (designed binder)
chain: MTLQELLREEALRRAEAEAFRYALYLLAEKFPEQKEYLLDLAEEIESQIRSLSGVDVEDVRKFLDKEWAWVKELLAEHPAELAEVEAARAARLAELRAEVEAKVAA
B27: L52Q (designed binder)
chain: MTLQELLREEALRRAEAEAFRYALELLAEKFPEQKEYLLDLAEEIESQIRSQSGVDVEDVRKFLDKEWAWVKELLAEHPAELAEVEAARAARLAELRAEVEAKVAA
B28: E58R (designed binder)
chain: MTLQELLREEALRRAEAEAFRYALELLAEKFPEQKEYLLDLAEEIESQIRSLSGVDVRDVRKFLDKEWAWVKELLAEHPAELAEVEAARAARLAELRAEVEAKVAA
B29: A23R (designed binder)
chain: MTLQELLREEALRRAEAEAFRYRLELLAEKFPEQKEYLLDLAEEIESQIRSLSGVDVEDVRKFLDKEWAWVKELLAEHPAELAEVEAARAARLAELRAEVEAKVAA
B30: L39C (designed binder)
chain: MTLQELLREEALRRAEAEAFRYALELLAEKFPEQKEYLCDLAEEIESQIRSLSGVDVEDVRKFLDKEWAWVKELLAEHPAELAEVEAARAARLAELRAEVEAKVAA
B31: E18C (designed binder)
chain: MTLQELLREEALRRAEACAFRYALELLAEKFPEQKEYLLDLAEEIESQIRSLSGVDVEDVRKFLDKEWAWVKELLAEHPAELAEVEAARAARLAELRAEVEAKVAA
B32: L12D (designed binder)
chain: MTLQELLREEADRRAEAEAFRYALELLAEKFPEQKEYLLDLAEEIESQIRSLSGVDVEDVRKFLDKEWAWVKELLAEHPAELAEVEAARAARLAELRAEVEAKVAA
B33: L12G (designed binder)
chain: MTLQELLREEAGRRAEAEAFRYALELLAEKFPEQKEYLLDLAEEIESQIRSLSGVDVEDVRKFLDKEWAWVKELLAEHPAELAEVEAARAARLAELRAEVEAKVAA
B34: R92D (designed binder)
chain: MTLQELLREEALRRAEAEAFRYALELLAEKFPEQKEYLLDLAEEIESQIRSLSGVDVEDVRKFLDKEWAWVKELLAEHPAELAEVEAARAADLAELRAEVEAKVAA

For the experiment, the target named is T1, TNFR1. Put plainly: yeast display SC50.
Regarding B1, the “apparent Kd (screen)” value is 0.277 nM. In the case of B2 it was 0.653 nM; in that of B3, 0.718 nM. As for B4, the “apparent Kd (screen)” value stood at 0.869 nM. As for B5, the “apparent Kd (screen)” value stood at 0.869 nM.

With B6, the “apparent Kd (screen)” value was found to be 5.84 nM. As to B7, the “apparent Kd (screen)” value was 2.48 nM. B8: the “apparent Kd (screen)” value stood at 2.05 nM. Regarding B9, the “apparent Kd (screen)” value was 0.79 nM. The figure for B10 is 12.5 nM; for B11 it is 0.869 nM; for B12 it is 0.539 nM. As to B13, the “apparent Kd (screen)” value was determined as 0.956 nM. In the case of B14 it was 1.27 nM; in that of B15, 0.539 nM; in that of B16, 0.539 nM. Regarding B17, the “apparent Kd (screen)” value came to 0.593 nM.

Consider B18, for which the “apparent Kd (screen)” value was found to be 0.539 nM. The figure for B19 is 3 nM; for B20 it is 4.39 nM. Consider B21, for which the “apparent Kd (screen)” value was 6.43 nM. For B22, the “apparent Kd (screen)” value was found to be 0.49 nM. Take B23: the “apparent Kd (screen)” value stood at 0.49 nM. As to B24, the “apparent Kd (screen)” value was 1.4 nM.

For the molecule B25, the “apparent Kd (screen)” value was 26.9 nM. In the case of B26, the “apparent Kd (screen)” value was found to be 0.653 nM. As to B27, the “apparent Kd (screen)” value was 0.539 nM. For B28, the “apparent Kd (screen)” value came to 0.869 nM. In the case of B29 it was 0.539 nM; in that of B30, 1.16 nM; in that of B31, 0.79 nM. For the molecule B32, the “apparent Kd (screen)” value amounted to 1.05 nM. The figure for B33 is 2.25 nM. For B34, the “apparent Kd (screen)” value was 0.718 nM.
